Experimental data from the DeepSol protein solubility set.

assay: soluble on expression in E. coli; label from the status in PepcDB or PDB records

Sequence | soluble on expression in E. coli
MAGHSHWAQIKHKKAKVDAQRGKLFSKLIREIIVATRLGGPNPEFNPRLRTAIEQAKKANMPWENIERAIKKGAGELEGEQFEEVIYEGYAPGGVAVMVLATTDNRNRTTSEVRHVFTKHGGNLGASGCVSYLFERKGYIEVPAKEVSEEELLEKAIEVGAEDVQPGEEVHIIYTVPEELYEVKENLEKLGVPIEKAQITWKPISTVQINDEETAQKVIKLLNALEELDDVQQVIANFEIPEEILQKVGLEHHHHHH | not soluble
MLMSVFHNWLLEIACENYFVYIKRLSANDTGATGGHQVGLYIPSGIVEKLFPSINHTRELNPSVFLTAHVSSHDCPDSEARAIYYNSAHFGKTRNEKRITRWGRGSPLQDPENTGALTLLAFKLDEQGGDCKEVNIWVCASTDEEDVIETAIGEVIPGALISGPAGQILGGLSLQQAPVNHKYILPEDWHLRFPSGSEIIQYAASHYVKNSLDPDEQLLDRRRVEYDIFLLVEELHVLDIIRKGFGSVDEFIALANSVSNRRKSRAGKSLELHLEHLFIEHGLRHFATQAITEGNKKPDFLFPSAGAYHDTEFPVENLRMLAVKTTCKDRWRQILNEADKIHQVHLFTLQEGVSLAQYREMRESGVRLVVPSSLHKKYPEAVRAELMTLGAFIAELTGLYADIP | soluble
MSLVIVMYSIKMRASKNGKHISGAERIVNKDEIEETVKELVRRALTHENGTPDFINIKIEEIKEEITYINHLPIKTIHCKDKEEARETAKKILRNEGIPDSVIDYAYEIIDKGGMRGAAILNLKGERLEPDKERGVRVKNIDTTKELKEKILKENLGTERTVDAIAIASKVIHLGVIAELCTSDNKSYTTGYVATKKGYFRITNLKKEGESGGRVFFVKDDVDIEDLINKLENKPEGHHHHHH | soluble
MARPKSEDKKQALLEAATQAIAQSGIAASTAVIARNAGVAEGTLFRYFATKDELINTLYLHLKQDLCQSMIMELDRSITDAKMMTRFIWNSYISWGLNHPARHRAIRQLAVSEKLTKETEQRADDMFPELRDLCHRSVLMVFMSDEYRAFGDGLFLALAETTMDFAARDPARAGEYIALGFEAMWRALTREEQ | not soluble
MGSDKIHHHHHHMKTRDRIVHASLELFNLNGEPGITTNHIAAHLGMSPGNLYYHFRNKEDIIRSIFDLYQQHLEKGFQPYENKQVDMALLMGYFDALFYTLWQFRFMYANLVIILGRDEELKQKYLGIQQQVLARSSNILQQLKKDKVLDIADDEITPLADTIRMIAGFWISNQLTYSGAANITKSSLYEGLLRVLMLFKAYSTSDSFETFKHLEQHYRTLALEDDQ | not soluble
MGSDKIHHHHHHMDEFDYVRRKLIERILHLTEKQPVVRPLPGLTVGRRESPTEPSTYILPPSICIAVQGAKRVLIGEEYYVYDVENFLLNSFDVPVVAQVIEASKEKPYIGMTWEIDMEILMEIVVEQKLNTRPITSSRGTSLGKVTHQLLDAFRRMLELLDEPEHISALLPVIKKEIIYRLLVSEQGPRLIQIALSGKNDVITALNYLKEHFNESVNMKRLAEMVGMSVSTFYQNFKILTGMTPLQYQKKLRLCEARKLLMAGSDVTTAAYQVGYESLSQFSREYKRFFGVSPSQDAKKLKEEPYTRILY | not soluble
MGSDKIHHHHHHMGKSIRKIVNWKQYNQALVNRGSLTFWVDEAAVNTWYCHEHHGGRGRGFSYSDVAIETALMVKGIFNLSLRALEGFLNSLFTLMSVPLKSPDYTSISKRAKTVNIKYRNPSRGPIAHVVVDATGLKVFGEGEWKTRKHGSEKRRTWRKLHLAIDASTHEVVAAEVSLVSVGDNEVLPTLLNPLRRKITQVSADGAYDTKGCYQLLRRKGCKATIPPRSNAGLWEKRHPRNEAVEALKAGQLKHWKIDNGYHQRSLAETAMGRYKQLNSPMLSLRDYNGQVAEALAGVKAMNKVIRLGMPVRQQVA | not soluble
EVKLVESGGGLVKPGGSLKLSCAASGFTFNNYVMVWLRQTPEKRLEWVASISRGGSTYYPDSVKGRFTISRDNARNILYLQMSSLRSEDTAMYYCVRGTTIVAGDVWGAGTTVTVSSAKTTPPSVYPLAPGSAAQTNSMVTLGCLVKGYFPEPVTVTWNSGSLSSGVHTFPAVLQSDLYTLSSSVTVPSSTWPSETVTCNVAHPASSTKVDKKIVPRDC | soluble
MLRIIVIGTTGSGKTTFARALAQRLGLPHGEQDAWNHEANWQMAPLGRFRARVDTFTSQPAWVMDGNYGKARDLGWARADTLIWLDFPAWLVYSRLVRRTLWRVLTQQELWNGNRETWRGALLDPEGPLRWFWKTHWRRRQETPALAAEFPHLRLVRLRSPGEARRFLAAVGRGHPTALEHHHHHH | not soluble
MDRNSLSNSLKTCYKYLNQTSRSFAAVIQALDGEMRNAVCIFYLVLRALDTLEDDMTISVEKKVPLLHNFHSFLYQPDWRFMESKEKDRQVLEDFPTISLEFRNLAEKYQTVIADICRRMGIGMAEFLDKHVTSEQEWDKYCHYVAGLVGIGLSRLFSASEFEDPLVGEDTERANSMGLFLQKTNIIRDYLEDQQGGREFWPQEVWSRYVKKLGDFAKPENIDLAVQCLNELITNALHHIPDVITYLSRLRNQSVFNFCAIPQVMAIATLAACYNNQQVFKGAVKIRKGQAVTLMMDATNMPAVKAIIYQYMEEIYHRIPDSDPSSSKTRQIISTIRTQN | soluble
ALLAVSMVACTSDEIALIEAMSKTSEISSYEGNSKIQLSFKGQGFSEKTQKVFDFLASYVDGFTFEANQKYSSNDEKTKATLAMDGNVDMQGLSVKYKYWTDMDFTTENPSLIQIVELPPAITQPMFTFANTGTKKYITIDYGSVLSAENNGGISLNPENLAKNSVELQEMLLDFVKTTAKDFDPGMVAVTKKGSAVTDKGEKVTEYELKLDDAAAKKLLHAFINDVILQEDTIEFGKKYMEAAINMYDFPEEEKQEALDEINKGLDEFASQLPAYRDSVTQVFESIKDVKFFGDKGLVAKYYINNDGFLVGGKSSIDIKIKMADFAALLGDNFDEKDKNGVLYLTIDAESSVYNINKEVSIELPEITEENSFDVLKGFMPILSGIGSAPGIGEEDYTYDIPALSDGINVVMNGKVVYFPDVKPENVNGRVLVPIRTISEEMGAEVTYNDATKQVLIAKDDTEILLTIGSQEAYVNGEKIMLDVPAMIIEGRTMVPLRFISESMNATVEWDGEAQIVYIFY | not soluble
MKVTPINDYKDIHQDKETVLVLGYFDALHRGHKVLFDKARQIADEKQLEVAVFTFNESPQLTFQRYTDDLLLHITAPQRRCDLFKAYGTDQLYLTDFNSDFARTSSDDFITRYINRLKAQEIVVGFDYKFGHHRTDTDYLDRNFSGTVHVIEEQQSGGEKISSTRVRQLIREGNVKEANNLLGHEFSTRGIVVHGDARGRTIGFPTANLAPIDRTILPADGVYVADVVIDGKRYRSMTSLGKNVTFGGTELRLEANIFDFEGDIYGKTIEVFWLDYIRDMIKFNNIDELCDQLKADKKIAEKL | not soluble
MKIDYVSDLHINHWIPWNVNQIKWEKRTREIVNRLISNGNGEVLVIAGDFTEWNQQTLWVLDEAAKQYEKVYFTYGNHDLYLLSKSQKRKYSDSLGRLNDLIQKAADMKNVTPLIKTTETYKGKVFAGDVMWYLPKGIEGWDFFKGVSNDSNYIWLNGYNKVDGVRAMWKESMDWYETLENTQVDVFVSHVPPVHNPYSPFEPNTCYMVDVPFINAKHWVCGHDHLQAEFDKDGTSFHMNCIGYPYDYDNYPSVNVIPGEEVDSYKTFELKTFEIMAGDPLEHHHHHH | not soluble
MSYNYVVTAQKPTAVNGCVTGHFTSAEDLNLLIAKNTRLEIYVVTAEGLRPVKEVGMYGKIAVMELFRPKGESKDLLFILTAKYNACILEYKQSGESIDIITRAHGNVQDRIGRPSETGIIGIIDPECRMIGLRLYDGLFKVIPLDRDNKELKAFNIRLEELHVIDVKFLYGCQAPTICFVYQDPQGRHVKTYEVSLREKEFNKGPWKQENVEAEASMVIAVPEPFGGAIIIGQESITYHNGDKYLAIAPPIIKQSTIVCHNRVDPNGSRYLLGDMEGRLFMLLLEKEEQMDGTVTLKDLRVELLGETSIAECLTYLDNGVVFVGSRLGDSQLVKLNVDSNEQGSYVVAMETFTNLGPIVDMCVVDLERQGQGQLVTCSGAFKEGSLRIIRNGIGIHEHASIDLPGIKGLWPLRSDPNRETYDTLVLSFVGQTRVLMLNGEEVEETELMGFVDDQQTFFCGNVAHQQLIQITSASVRLVSQEPKALVSEWKEPQAKNISVASCNSSQVVVAVGRALYYLQIHPQELRQISHTEMEHEVACLDITPLGDSNGLSPLCAIGLWTDISARILKLPSFELLHKEMLGGEIIPRSILMTTFESSHYLLCALGDGALFYFGLNIETGLLSDRKKVTLGTQPTVLRTFRSLSTTNVFACSDRPTVIYSSNHKLVFSNVNLKEVNYMCPLNSDGYPDSLALANNSTLTIGTIDEIQKLHIRTVPLYESPRKICYQEVSQCFGVLSSRIEVQDTSGGTTALRPSASTQALSSSVSSSKLFSSSTAPHETSFGEEVEVHNLLIIDQHTFEVLHAHQFLQNEYALSLVSCKLGKDPNTYFIVGTAMVYPEEAEPKQGRIVVFQYSDGKLQTVAEKEVKGAVYSMVEFNGKLLASINSTVRLYEWTTEKDVRTECNHYNNIMALYLKTKGDFILVGDLMRSVLLLAYKPMEGNFEEIARDFNPNWMSAVEILDDDNFLGAENAFNLFVCQKDSAATTDEERQHLQEVGLFHLGEFVNVFCHGSLVMQNLGETSTPTQGSVLFGTVNGMIGLVTSLSESWYNLLLDMQNRLNKVIKSVGKIEHSFWRSFHTERKTEPATGFIDGDLIESFLDISRPKMQEVVANLQYDDGSGMKREATADDLIKVVEELTRIH | soluble
MYLYIETLKQRLDAINQLRVDRALAAMGPAFQQVYSLLPTLLHYHHPLMPGYLDGNVPKGICLYTPDETQRHYLNELELYRGMSVQDPPKGELPITGVYTMGSTSSVGQSCSSDLDIWVCHQSWLDSEERQLLQRKCSLLESWAASLGVEVSFFLIDENRFRHNESGSLGGEDCGSTQHILLLDEFYRTAVRLAGKRILWNMVPCDEEEHYDDYVMTLYAQGVLTPNEWLDLGGLSSLSAEEYFGASLWQLYKSIDSPYKAVLKTLLLEAYSWEYPNPRLLAKDIKQRLHDGEIVSFGLDPYCMMLERVTEYLTAIEDFTRLDLVRRCFYLKVCEKLSRERACVGWRREVLSQLVKEWEWDDARLAMLDNRANWKIDQVREAHNELLDAMMQSYRNLIRFARRNNLSVSASPQDIGVLTRKLYAAFEALPGKVTLVNPQISPDLSEPNLTFIYVPPGRANRSGWYLYNRAPNIESIISHQPLEYNRYLNKLVAWAWFNGLLTSRTRLYIKGNGVVDLPKLQEMVADVSHHFPLRLPAPTPKALYSPCEIRHLAIIVNLEYDPTAAFRNQVVHFDFRKLDVFSFGENQNCLVGSVDLLYRNSWNEVRTLHFNGEQSMIEALKTILGKMHQDAAPPDSVEVFCYSQHLRGLIRTRVQQLVSECIELRLSSTRQETGRFKALRVSGQTWGLFFERLNVSVQKLENAIEFYGAISHNKLHGLSVQVETNHVKLPAVVDGFASEGIIQFFFEETQDENGFNIYILDESNRVEVYHHCEGSKEELVRDVSRFYSSSHDRFTYGSSFINFNLPQFYQIVKVDGREQVIPFRTKSIGN | not soluble
MYGEWGMGNILMMFHVYLVQGFRSEHGPVKDFSFERSSRSMLERSEQQIRAASSLEELLQIAHSEDWKLWRCRLKLKSLASMDSRSASHRSTRFAATFYDL | not soluble
MGSDKIHHHHHHMKTLSIVWAVVGLMLIGGCDQTPQAQSTQSKSMANVVGTTSANQDDLAFTPIVPGYKFEFPRDHLAHNNFRQEWWYLTANLTTETGEQLGAQWTQFRVALKPTDLQTIAPQVTDATPKSESTWATQQLYLAHSALTSSNAHLAHEKWSRRHSEFAEVKLDPYQIRLDNWHWQSETNALFPATLTVENPDFSYQLKLNSQAPLQYQGANGYSLKSRDGQVASYYYSQPFIEISGEINRNGKMERVTGQGWLDREWSSQFLTKTQQGWDWFALRLNDGSTLMLFQLRDQSPAESAKNAPISAFYSARRMFADGTGRNINSTDNPNDIQMTPLQWQHTVNGDYPVSWQVKIPSENIDITITPLNPNSAMPLSTPYWEGPVQLSGSHTGTGYMELTGY | not soluble
